The target of assay [1] is human MMP-2 (Biomol #SE-237) (human) (UniProt P08253). Briefly: Ki,app, enzyme inhibition assay (fluorogenic peptide substrate).
Assay [2] has as its target Human MMP-9 catalytic domain (BIOMOL, SE-244) (human) (UniProt P14780). Briefly: cell-based or functional assay.

Sequence of Human MMP-9 catalytic domain (BIOMOL, SE-244) (human) (P14780 107-457 limits assumed): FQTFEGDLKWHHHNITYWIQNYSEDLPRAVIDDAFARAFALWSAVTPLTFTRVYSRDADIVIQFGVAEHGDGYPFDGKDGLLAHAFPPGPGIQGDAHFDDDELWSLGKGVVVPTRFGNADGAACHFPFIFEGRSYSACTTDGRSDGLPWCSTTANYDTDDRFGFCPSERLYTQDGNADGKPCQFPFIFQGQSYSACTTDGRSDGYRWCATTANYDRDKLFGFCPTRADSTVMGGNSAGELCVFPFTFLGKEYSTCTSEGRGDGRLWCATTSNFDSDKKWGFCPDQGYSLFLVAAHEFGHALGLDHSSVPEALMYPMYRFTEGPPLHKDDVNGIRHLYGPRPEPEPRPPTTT
Sequence of human MMP-2 (Biomol #SE-237) (human) (P08253 110-452 limits assumed): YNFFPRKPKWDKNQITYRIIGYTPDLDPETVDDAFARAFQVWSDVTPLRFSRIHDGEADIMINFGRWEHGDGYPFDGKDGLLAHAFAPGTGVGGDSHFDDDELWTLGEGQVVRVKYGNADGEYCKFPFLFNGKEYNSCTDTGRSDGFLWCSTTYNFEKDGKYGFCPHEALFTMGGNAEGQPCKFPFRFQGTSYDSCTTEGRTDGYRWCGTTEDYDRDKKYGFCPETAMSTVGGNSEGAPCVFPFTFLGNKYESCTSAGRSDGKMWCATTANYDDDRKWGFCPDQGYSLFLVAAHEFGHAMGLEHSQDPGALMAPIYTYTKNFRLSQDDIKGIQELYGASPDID

As for “Anti-hMMP-2 R&D Systems pAb # AF902 (antibody)”, the Ki in assay [1] is 6 nM.
Regarding “Anti-hMMP-9 R&D Systems pAb # AB911 (antibody)”, the IC50 (enzyme inhibition) in assay [2] was > 500 nM.

(Values after patent US20110135573A1, “METALLOPROTEINASE 9 AND METALLOPROTEINASE 2 BINDING PROTEINS” (DYAX CORP., priority 2009, published 2011).)
